The values that follow come from PMC7697625 (Biomolecules, 2020).

The data set deals with the molecule itself. Put plainly: AUC; sedimentation velocity, 20 uM (0.25 mg/mL), 20 mM sodium phosphate pH 8.0, 200 mM NaCl, 20 C, 50,000 RPM; monomer and dimer.

B1: TNIP1 AHD1-UBAN construct (TNIP1^417-509) (domain or fragment, human, UniProt Q15025 417-509, looked up)
chain: QRLNKALEEALSIQTPPSSPPTAFGSPEGAGALLRKQELVTQNELLKQQVKIFEEDFQRERSDRERMNEEKEELKKQVEKLQAQVTLSNAQLK
notes: pET28a construct; For NMR the protein was 15N-labelled (minimal medium with 15NH4Cl); also called TNIP1 AHD1-UBAN region; AHD1-UBAN domain; source: E. coli BL-21(DE3) Rosetta 2, heat lysis, purified (HisTrap HP, Superdex 75); not shown: His6, C-terminal, kept
By stoichiometry N is commonly meant a count of units in the complex or per binding partner. Consider B1, for which the “stoichiometry N” value was determined as 2.
